Results from paper PMC3039075 (Nitric oxide : biology and chemistry / official journal of …, 2010).

Target: the molecule itself
Assay: non-reducing SDS-PAGE and Western blot

B1: matrix metalloproteinase-9 (MMP-9) (enzyme)
chain: not shown
  stoichiometry N: 2
